Target: His-caltubin-Tat (cell-penetrating caltubin) (Lymnaea stagnalis | HIV)
Assay: ITC

B1: L391 peptide (synthetic, TUBA1 L391-V405) (peptide)
peptide: Ac-LDHKFDLMYAKRAFV-NH2
  Kd: 3.42 µM

Source: publication doi:10.1101/2023.01.23.525163
